The values that follow come from patent US20250034256A1 (EUCURE BEIJING BIOPHARMA, published 2025).

Experiment [1] deals with mouse PD-1 (mPD-1) on transfected CHO cells (mouse) (UniProt Q02242). In words: flow cytometry on CHO cells transfected with mPD-1 (CHO-mPD-1); anti-mIgG Fc-FITC against SSC-H. For orientation: Flow cytometry measures light scatter and fluorescence of single cells or particles in a stream.
The target of experiment [2] is monkey (rhesus macaque) PD-1 (rmPD-1) on transfected CHO cells (rhesus macaque). Briefly: flow cytometry on CHO cells transfected with rmPD-1 (CHO-rmPD-1); anti-mIgG Fc-FITC against SSC-H.
For experiment [3], the target named is chimeric (mouse and human) PD-1 (chiPD-1) on transfected CHO cells (chimeric (mouse and human)). In words: flow cytometry on CHO cells transfected with chiPD-1 (CHO-chiPD-1); anti-mIgG Fc-FITC against SSC-H.
In experiment [4] the target is T1, mouse PD-1 (mPD-1) on transfected CHO cells (mouse, UniProt Q02242 25-288).
T1 sequence: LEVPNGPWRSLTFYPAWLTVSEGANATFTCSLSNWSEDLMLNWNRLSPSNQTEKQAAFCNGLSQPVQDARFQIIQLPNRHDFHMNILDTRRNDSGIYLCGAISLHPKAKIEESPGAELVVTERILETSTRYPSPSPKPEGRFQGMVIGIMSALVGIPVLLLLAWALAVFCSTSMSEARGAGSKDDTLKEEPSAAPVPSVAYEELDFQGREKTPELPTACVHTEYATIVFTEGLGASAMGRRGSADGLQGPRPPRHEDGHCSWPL
Briefly: flow cytometry, antibody at 1 µg/ml on CHO cells transfected with mPD-1 (CHO-mPD-1); anti-mIgG Fc-FITC against SSC-H. The protocol: (§1) 25 μl CHO cells were added to each well.
(§2) After being washed with PBS (1200 rmp, 5 min) twice, 50 μl of FITC labeled anti-mouse IgG Fc antibody (anti-mIgG Fc-FITC) was added into each well 1:500 dilution, followed by incubated at 4° C. for 30 minutes, and then PBS wash (1200 rmp, 5 min). The signals for FITC were determined by flow cytometry.

Experiment [5] addresses T2, monkey (rhesus macaque) PD-1 (rmPD-1) on transfected CHO cells (rhesus macaque, UniProt Q15116 25-288 (human entry)).
T2 construct: also called monkey PD-1
T2 chain: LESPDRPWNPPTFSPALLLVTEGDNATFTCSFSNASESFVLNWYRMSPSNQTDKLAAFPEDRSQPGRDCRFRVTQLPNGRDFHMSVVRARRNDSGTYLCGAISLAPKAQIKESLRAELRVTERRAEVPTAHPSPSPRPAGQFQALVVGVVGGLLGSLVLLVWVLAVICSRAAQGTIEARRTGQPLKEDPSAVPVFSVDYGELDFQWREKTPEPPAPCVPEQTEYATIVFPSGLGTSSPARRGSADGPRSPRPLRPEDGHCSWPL
Briefly: flow cytometry, antibody at 1 µg/ml on CHO cells transfected with rmPD-1 (CHO-rmPD-1); anti-mIgG Fc-FITC against SSC-H. As for the experimental part:
as §1, §2

Experiment [6] deals with T1, mouse PD-1 (mPD-1) on transfected CHO …. Briefly: flow cytometry on CHO cells transfected with mouse PD-1. The protocol: as §1, §2

Chain of chimeric (mouse and human) PD-1 (chiPD-1) on transfected CHO cells (chimeric (mouse and human)) (chain, as listed by the source mutant limits assumed): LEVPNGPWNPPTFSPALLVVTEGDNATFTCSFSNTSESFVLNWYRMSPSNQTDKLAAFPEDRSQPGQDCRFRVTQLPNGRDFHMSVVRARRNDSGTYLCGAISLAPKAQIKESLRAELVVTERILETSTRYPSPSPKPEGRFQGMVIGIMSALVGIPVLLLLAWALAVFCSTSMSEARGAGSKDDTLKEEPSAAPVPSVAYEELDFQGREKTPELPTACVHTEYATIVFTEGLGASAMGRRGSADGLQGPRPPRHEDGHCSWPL

NC: the values for the % cells positive for Anti-mouse-IgGFc-FITC in experiment [1], in experiment [2] and in experiment [3] were 0.346%, 0.812% and 2.79%, respectively.

B1: mouse anti-hPD-1 antibody 25-1A7 (antibody, V domains shown)
VH: EVKLVESGGGLVQPGGSLKLSCAASGFTFSSYSMSWVRQTPEKRLEWVAHISSGGSSTYYPDTVKGRFTISRDNARNTLYLQMSSLKSEDTAMYYCTRQFYYGSSFWYFDVWGAGTTVTVSS
VL: DNVLTQSPVSLAVSLGQRATISCKASQSVDFDGDSYMNWYQQKPGQPPKLLIYAASNLESGIPARFSGSGSGTDFTLNIHPVEEEDAATYYCQQSNEDPPTFGGGTKLEIK
notes: Mouse monoclonal antibody purified from ascites
Take B1: the entries for the “% cells positive for Anti-mouse-IgGFc-FITC” value (“% cells positive” for short) in experiment [4] and in experiment [5] were 0.381% and 85%, respectively. The binding result in experiment [6] is on record as “no binding (tested: 1 µg/ml)”.

B2: mouse anti-hPD-1 antibody 18-3F1 (antibody, V domains shown)
VH: QVQLQQSGAELAKPGASVKMSCKASGYTFTSYWMHWVKQRPGQGLEWIGYINPSTGYTEYNQKFKDKATLTADKSSSTAYMQLSSLTSEDSAVYYCARGVRYYFDYWGQGTTLTVSS
VL: DIVMSQSPSSLAVSAGEKVTMSCKSSQSLLNSRTRKNYLAWYQQKPGQSPKLLIYWASTRESGVPDRFTGSGSGTDFTLTISSVQAEDLAVYYCKQSYNLLTFGAGTKLELK
notes: as for B1
For the molecule B2, the “% cells positive” value amounted to 1.51% in experiment [4] and 63.6% in experiment [5]. In experiment [6], the binding result was “no binding (tested: 1 µg/ml)”.

B3: mouse anti-hPD-1 antibody 3-6G1 (antibody, V domains shown)
VH: QVQLQQSGAELAKPGASLKMSCKASGYTLTSYWMHWVKQRPGQGLEWIGYINPNTGYTEYNQKFKDKATLTADKSSSTAYMQLSSLTSEDSAVYYCARGTAYYFDYWGQGTTLTVSS
VL: DIVMSQSPSSLAVSAGEKVTMSCKSSQSLLNSRTRKNYLAWYQQKPGQSPKLLIYWASTRESGVPDRFTGSGSGTDFTLTISSVQAEDLAVYYCKQSYNLQTFGGGTKLEIK
notes: Mouse monoclonal antibody purified from ascites; also called 03-6G1
Turning to B3, the “% cells positive” value was 0.502% in experiment [4] and 64.3% in experiment [5]. For the same molecule, the binding result in experiment [6] is “no binding (tested: 1 µg/ml)”.
